The values below come from patent US20210403586A1, “MUTANT OF RANKL AND PHARMACEUTICAL COMPOSITION COMPRISING SAME FOR PREVENTING OR TREATING OSTEOPOROSIS” (INDUSTRY-ACADEMIC COOPERATION FOUNDATION CHOSUN UNIVERSITY, priority 2018, published 2021).

One assay concerns RANKL. The assay is described as follows: ELISA of serum RANKL levels. It is filed as in vivo, mouse. Particulars: wtRANKL 2.0 mg/kg s.c. to non-immunized mice, or to mice immunized with mtRANKL. The method, then: A commercially available enzyme immunoassay kit (R & D Systems, Minn., USA) was used to measure RANKL levels in the serum of mice according to the manufacturer's protocol. Absorbance (450 nm) was measured in a colorimetric microplate reader (BioTek, Winooski, USA). The reading of the absorbance was then subtracted from the reading at 570 nm.
17-week-old […] BALB/c mice were equally divided into 3 groups. The group was divided into a negative control group in which PBS was intraperitoneally injected, a group in which only wtRANKL was injected, and a group in which wtRANKL was injected after immunization with mtRANKL for 52 days. mtRANKL was injected after mixing with an aluminum hydroxide adjuvant. The immunization process started with 1st immunization of mtRANKL at 52 days, 2nd immunization at 39 days, 3rd immunization at 14 days each before injection of wtRANKL, and a total of 3 immunizations was performed. The amount of mtRANKL was 0.2 mg per mouse.
After 52 days, PBS was injected into the negative control group and wtRANKL was injected into the other two groups. Next day, wtRANKL was injected once more. wtRANK was subcutaneously injected (2.0 mg/kg). Serum was collected to determine the titer of anti-RANKL antibody. Then, after extracting tibias, the adhesive soft tissues of tibias were removed.

Assay [1] relates to bone marrow-derived monocytes (BMMs). As to the kind of experiment: Inhibition of wild type RANKL-induced TRAP activity by mutant RANKL in BMMs. It is filed as cell-based, mouse. Particulars: BMMs treated with mutant and wild type RANKL; even at a 3:1 wild type:mutant ratio. As to the method:
To investigate the optimized inhibitory effect against wild type RANKL, bone marrow-derived monocytes (BMMs) were treated with purified mutant and wild type RANKL (FIG. 2E, F). […] Therefore, we used mRANKL-MT3 for subsequent experiments.
4-week old male BALB/c mice were purchased from Orient Bio (Gwangju, Korea) and kept in an animal facility approved by the Chosun University Animal Management Committee (IACUC2017-A0002). After obtaining bone marrow cells from mice, bone marrow mononuclear cells were seeded into 96-well plates (1 Y 10^4 cells/well), and in the absence or presence of various concentrations of compounds, incubated with M-CSF (100 ng/mL) overnight before stimulation with RANKL (50 ng/well). The medium was replaced every other days. 6 days later, the cells were fixed with 4% paraformaldehyde, permeated in 0.1% Triton X-100, and washed with PBS. Then, TRAP activity (Sigma-Aldrich, St. Louis, Mo., USA) staining was performed. TRAP-positive multinuclear cells containing 5 or more nuclei were counted as osteoclasts.

Assay [2] relates to ovariectomized (OVX) mice. As to the kind of experiment: mtRANKL immunization in ovariectomized (OVX) mice, micro-CT. It is filed as in vivo, mouse. The note with it: mice ovariectomized after immunization with mtRANKL vs OVX mice. The method, then: […] As for the X-ray source, the field of view was set to 45 mm, 90 kV and […] (voxel size, 90 μm; scanning time, 14 minutes). CT imaging was performed using a Quantum GX 3D Viewer software. After scanning, image segmentation was performed in Analyze (AnalyzeDirect, Overland Park, Kans., USA). Briefly, the legs were segmented using semi-automatic and manual tools (e.g., object extractor, area expansion, and object separator) using volume editing tools. Then, a 3D rendering of the leg was created, and bone mineral density (BMD), bone volume (BV), bone volume percentage (%), and trabecular thickness were calculated using the ROI tools.
17-week-old […] BALB/c mice were equally divided into a group that was given OVX after immunization with mtRANKL, a group that was given only OVX, and a non-treated negative control group.
The mtRANKL-immunized group was immunized with mtRANKL a total of three times: started with 1st immunization at 52 days, 2nd immunization at 39 days, 3rd immunization at 14 days each before OVX. mtRANKL used in the immunization was injected after mixing with an aluminum hydroxide adjuvant. The amount of mtRANKL was 0.2 mg per mouse.
52 days after 1st immunization, OVX was performed. On day 70 after OVX, serum were collected and tibias were extracted, and then the adhesive soft tissues of tibias were removed. […]

A further assay concerns isolated spleen cells. As to the kind of experiment: Th1/Th2 cytokine secretion of isolated spleen cells. The class given is cell-based, mouse. Particulars: culture supernatant of Sham and IM splenocytes stimulated with sRANKL or mRANKL-MT3. The source says: To determine whether mRANKL-MT3 immunization influences Th1 and Th2 cytokine production, we evaluated the effects of mRANKL-MT3 on IL-4 and IL-10 secretion, which are markers for Th2 responses, and IFN-γ, a marker for Th1 responses, in the culture supernatant of isolated spleen cells stimulated with sRANKL or mRANKL-MT3 (FIG. 8C).

In a further assay the test system is BMMs. As to the kind of experiment: Real-time PCR of osteoclastogenesis mRNA in RANKL-induced BMMs. The class given is cell-based, mouse. The note with it: mRANKL-MT3-induced BMMs compared with mRANKL-WT induced BMMs. As to the method:
Meanwhile, for Real-time PCR, BMM cells were incubated with 30 ng/mL M-CSF and 75 ng/mL sRANKL (R&D Systems) or isolated RANKL in 6-well plates. Total RNA was extracted using TRIzol reagent (Invitrogen, Thermo Fisher Scientific, Inc.). The cDNA was synthesized from 2 μg total RNA using ReverTra Ace qPCR RT Master Mix (TOYOBO, Osaka, Japan). Real-time PCR was conducted on a CFX Connect RealTime PCR Detection System (Bio-Rad, Hercules, Calif., USA) in a reaction mixture (total volume, 20 μL) containing IQ SYBR Green Supermix (Bio-Rad), 10 pmol forward primer, 10 pmol reverse primer, and 1 μg cDNA.

B1: mRANKL-MT3: mouse RANKL mutant: K180R, D189I, R190K, H223F, H224Y; nucleic acid SEQ ID NO: 3 (protein, UniProt O35235 158-316, looked up, variant K180R D189I R190K H223F H224Y)
chain: KPEAQPFAHLTINAASIPSGSHRVTLSSWYHIKGWAKISNMTLSNGKLRVNQDGFYYLYANICFRFYETSGSVPTDYLQLMVYVVKTSIKIPSSHNLMKGGSTKNWSGNSEFHFYSINVGGFFKLRAGEEISIQVSNPSLLDPDQDATYFGAFKVQDID
B1: the “level of RANKL in the blood (ELISA)” value in the assay with RANKL is recorded as “eliminated”. For the same molecule, in assay [1], the “inhibitory effect against wild type RANKL (TRAP activity)” value is on record as “the most effective at inhibiting TRAP activity”. Also, the BMD of tibias entry in assay [2] is “significantly higher”. Besides, in assay [2] (day 70 after OVX), the “trabecular bones of proximal tibias (micro-CT)” value is “thicker fibers and higher density than those of OVX mice”. Besides, in the assay with isolated spleen cells, the IFN-γ levels result is on record as “no significant differences”; the “IL-4 and IL-10 secretion” value is “significantly increased”. Also, the “TRAP, NFATc1, and OSCAR mRNA expression” value in the assay on BMMs was “down-regulated”.
